The target of data set [1] is T1, PET28-NgAP2a (Nannochloropsis gaditana, UniProt W7TGT1 140-326).
T1 sequence: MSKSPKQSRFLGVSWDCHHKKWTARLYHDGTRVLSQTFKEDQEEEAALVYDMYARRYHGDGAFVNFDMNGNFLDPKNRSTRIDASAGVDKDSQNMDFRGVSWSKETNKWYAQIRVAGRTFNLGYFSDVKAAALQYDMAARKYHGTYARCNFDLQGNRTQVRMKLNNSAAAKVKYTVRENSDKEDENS
Nature of the data set: EMSA; Beyotime Chemiluminescent EMSA Kit GS009 per manual; buffer, salt, pH and temperature not stated. Conditions: protein: recombinant; label: 3' biotin; blunt. A general note: Mobility shift assays separate free from complexed probe on a gel.

Data set [2] concerns the target T1, PET28-NgAP2a. The data set can be described thus: competition; 100x unlabeled vs biotin M5 probe; Beyotime Chemiluminescent EMSA Kit GS009 per manual; buffer, salt, pH and temperature not stated. Conditions: protein: recombinant; label: none (unlabeled); blunt.

Numbering of substitutions follows the chain as printed.

B1: M5 probe (EMSA5) (dsDNA)
DNA 1: CTCATTCCCATACCGCAAGTACCTGACCCTGTA
DNA 2: TACAGGGTCAGGTACTTGCGGTATGGGAATGAG
As for B1, the binding result with PET28-NgAP2a [1] is on record as “binds”.

B2: unlabeled M5 competitor (dsDNA)
DNA 1: B1 DNA 1
DNA 2: B1 DNA 2
B2: in the data set with PET28-NgAP2a [2], the binding result is reported as “binds”.

B3: mutant M5 competitor (mu_EMSA5) (dsDNA)
DNA 1: B1 DNA 1 with C13A, C14A, G15A
DNA 2: B1 DNA 2 with C19T, G20T, G21T
With B3, the binding result with PET28-NgAP2a [2] was “no binding”.

B4: M3 probe (EMSA3) (dsDNA)
DNA 1: GGCGTTGCCACTTGGGCAAAGAAAAGCTGG
DNA 2: CCAGCTTTTCTTTGCCCAAGTGGCAACGCC
B4: the binding result in the data set with PET28-NgAP2a [1] is recorded as “no binding”.
